# Test results reported in article PMC7367873, “Dissecting the sequence determinants for dephosphorylation by the catalytic subunits of phosphatases PP1 and PP2A” (Nature Communications, 2020).
# Tests used:
# [1] = system: GFP-14-3-3β and its binding proteins; assay: GFP-14-3-3β co-IP with LC-MS/MS label-free quantification, untreated versus PP1c-treated; parameters: species or system human; conditions: PP1 vs untreated; LFQ intensities; 3 replicates each
# [2] = system: GFP-14-3-3β; assay: GFP-14-3-3β co-IP with LC-MS/MS, untreated GFP-14-3-3β versus GFP control (14-3-3 interactome); type: binding, human; conditions: untreated vs GFP; LFQ intensities; 3 replicates each
"Difference (log2), PP1 vs untreated [1]",Molecule,"Difference (log2), untreated vs GFP [2]"
0.5459 log2,"DHX29 (protein, UniProt Q7Z478 1-1369, looked up) ATP-dependent RNA helicase …: MGGKNKKHKAPAAAVVRAAVSASRAKSAEAGIAGEAQSKKPVSRPATAAAAAAGSREPRVKQGPKIYSFNSTNDSSGPANLDKSILKVVINNKLEQRIIGVINEHKKQNNDKGMISGRLTAKKLQDLYMALQAFSFKTKDIEDAMTNTLLYGGDLHSALDWLCLNLSDDALPEGFSQEFEEQQPKSRPKFQSPQIQATISPPLQPKTKTYEEDPKSKPKKEEKNMEVNMKEWILRYAEQQNEEEKNENSKSLEEEEKFDPNERYLHLAAKLLDAKEQAATFKLEKNKQGQKEAQEKIRKFQREMETLEDHPVFNPAMKISHQQNERKKPPVATEGESALNFNLFEKSAAATEEEKDKKKEPHDVRNFDYTARSWTGKSPKQFLIDWVRKNLPKSPNPSFEKVPVGRYWKCRVRVIKSEDDVLVVCPTILTEDGMQAQHLGATLALYRLVKGQSVHQLLPPTYRDVWLEWSDAEKKREELNKMETNKPRDLFIAKLLNKLKQQQQQQQQHSENKRENSEDPEESWENLVSDEDFSALSLESANVEDLEPVRNLFRKLQSTPKYQKLLKERQQLPVFKHRDSIVETLKRHRVVVVAGETGSGKSTQVPHFLLEDLLLNEWEASKCNIVCTQPRRISAVSLANRVCDELGCENGPGGRNSLCGYQIRMESRACESTRLLYCTTGVLLRKLQEDGLLSNVSHVIVDEVHERSVQSDFLLIILKEILQKRSDLHLILMSATVDSEKFSTYFTHCPILRISGRSYPVEVFHLEDIIEETGFVLEKDSEYCQKFLEEEEEVTINVTSKAGGIKKYQEYIPVQTGAHADLNPFYQKYSSRTQHAILYMNPHKINLDLILELLAYLDKSPQFRNIEGAVLIFLPGLAHIQQLYDLLSNDRRFYSERYKVIALHSILSTQDQAAAFTLPPPGVRKIVLATNIAETGITIPDVVFVIDTGRTKENKYHESSQMSSLVETFVSKASALQRQGRAGRVRDGFCFRMYTRERFEGFMDYSVPEILRVPLEELCLHIMKCNLGSPEDFLSKALDPPQLQVISNAMNLLRKIGACELNEPKLTPLGQHLAALPVNVKIGKMLIFGAIFGCLDPVATLAAVMTEKSPFTTPIGRKDEADLAKSALAMADSDHLTIYNAYLGWKKARQEGGYRSEITYCRRNFLNRTSLLTLEDVKQELIKLVKAAGFSSSTTSTSWEGNRASQTLSFQEIALLKAVLVAGLYDNVGKIIYTKSVDVTEKLACIVETAQGKAQVHPSSVNRDLQTHGWLLYQEKIRYARVYLRETTLITPFPVLLFGGDIEVQHRERLLSIDGWIYFQAPVKIAVIFKQLRVLIDSVLRKKLENPKMSLENDKILQIITELIKTENN",1.239 log2
0.5387 log2,"HNRNPD (protein, UniProt Q14103 2-355, looked up) Heterogeneous nuclear …: SEEQFGGDGAAAAATAAVGGSAGEQEGAMVAATQGAAAAAGSGAGTGGGTASGGTEGGSAESEGAKIDASKNEEDEGHSNSSPRHSEAATAQREEWKMFIGGLSWDTTKKDLKDYFSKFGEVVDCTLKLDPITGRSRGFGFVLFKESESVDKVMDQKEHKLNGKVIDPKRAKAMKTKEPVKKIFVGGLSPDTPEEKIREYFGGFGEVESIELPMDNKTNKRRGFCFITFKEEEPVKKIMEKKYHNVGLSKCEIKVAMSKEQYQQQQQWGSRGGFAGRARGRGGGPSQNWNQGYSNYWNQGYGNYGYNSQGYGGYGGYDYTGYNNYYGYGDYSNQQSGYGKVSRRGGHQNSYKPY",0.1919 log2

# Continued, molecule first:
Molecule,"Difference (log2), PP1 vs untreated [1]","Difference (log2), untreated vs GFP [2]"
"RCN1 (protein, UniProt Q15293 30-331, looked up) Reticulocalbin-1: KPTVRKERVVRPDSELGERPPEDNQSFQYDHEAFLGKEDSKTFDQLTPDESKERLGKIVDRIDNDGDGFVTTEELKTWIKRVQKRYIFDNVAKVWKDYDRDKDDKISWEEYKQATYGYYLGNPAEFHDSSDHHTFKKMLPRDERRFKAADLNGDLTATREEFTAFLHPEEFEHMKEIVVLETLEDIDKNGDGFVDQDEYIADMFSHEENGPEPDWVLSEREQFNEFRDLNKDGKLDKDEIRHWILPQDYDHAQAEARHLVYESDKNKDEKLTKEEILENWNMFVGSQATNYGEDLTKNHDEL",0.5407 log2,-0.5528 log2
"SLC2A1 (protein, UniProt P11166 1-492, looked up) Solute carrier family 2, …: MEPSSKKLTGRLMLAVGGAVLGSLQFGYNTGVINAPQKVIEEFYNQTWVHRYGESILPTTLTTLWSLSVAIFSVGGMIGSFSVGLFVNRFGRRNSMLMMNLLAFVSAVLMGFSKLGKSFEMLILGRFIIGVYCGLTTGFVPMYVGEVSPTALRGALGTLHQLGIVVGILIAQVFGLDSIMGNKDLWPLLLSIIFIPALLQCIVLPFCPESPRFLLINRNEENRAKSVLKKLRGTADVTHDLQEMKEESRQMMREKKVTILELFRSPAYRQPILIAVVLQLSQQLSGINAVFYYSTSIFEKAGVQQPVYATIGSGIVNTAFTVVSLFVVERAGRRTLHLIGLAGMAGCAILMTIALALLEQLPWMSYLSIVAIFGFVAFFEVGPGPIPWFIVAELFSQGPRPAAIAVAGFSNWTSNFIVGMCFQYVEQLCGPYVFIIFTVLLVLFFIFTYFKVPETKGRTFDEIASGFRQGGASQSDKTPEELFHPLGADSQV",0.5451 log2,-0.3989 log2
"PHLDB2 (protein, UniProt Q86SQ0 1-1253, looked up) Pleckstrin homology-like …: MEEHSYIQKELDLQNGSLEEDSVVHSVENDSQNMMESLSPKKYSSSLRFKANGDYSGSYLTLSQPVPAKRSPSPLGTSVRSSPSLAKIQGSKQFSYDGTDKNIPMKPPTPLLNTTSSLSGYPLGRADFDHYTGRDSERALRLSEKPPYSKYSSRHKSHDNVYSLGGLEGRKASGSLLAMWNGSSLSDAGPPPISRSGAASMPSSPKQARKMSIQDSLALQPKLTRHKELASENINLRTRKYSSSSLSHMGAYSRSLPRLYRATENQLTPLSLPPRNSLGNSKRTKLGEKDLPHSVIDNDNYLNFSSLSSGALPYKTSASEGNPYVSSTLSVPASPRVARKMLLASTSSCASDDFDQASYVGTNPSHSLLAGESDRVFATRRNFSCGSVEFDEADLESLRQASGTPQPALRERKSSISSISGRDDLMDYHRRQREERLREQEMERLERQRLETILSLCAEYTKPDSRLSTGTTVEDVQKINKELEKLQLSDEESVFEEALMSPDTRYRCHRKDSLPDADLASCGSLSQSSASFFTPRSTRNDELLSDLTRTPPPPSSTFPKASSESSYLSILPKTPEGISEEQRSQELAAMEETRIVILNNLEELKQKIKDINDQMDESFRELDMECALLDGEQKSETTELMKEKEILDHLNRKIAELEKNIVGEKTKEKVKLDAEREKLERLQELYSEQKTQLDNCPESMREQLQQQLKRDADLLDVESKHFEDLEFQQLEHESRLDEEKENLTQQLLREVAEYQRNIVSRKEKISALKKQANHIVQQAQREQDHFVKEKNNLIMMLQREKENLCNLEKKYSSLSGGKGFPVNPNTLKEGYISVNEINEPCGNSTNLSPSTQFPADADAVATEPATAVLASQPQSKEHFRSLEERKKQHKEGLYLSDTLPRKKTTSSISPHFSSATMGRSITPKAHLPLGQSNSCGSVLPPSLAAMAKDSESRRMLRGYNHQQMSEGHRQKSEFYNRTASESNVYLNSFHYPDHSYKDQAFDTLSLDSSDSMETSISACSPDNISSASTSNIARIEEMERLLKQAHAEKTRLLESREREMEAKKRALEEEKRRREILEKRLQEETSQRQKLIEKEVKIRERQRAQARPLTRYLPVRKEDFDLRSHVETAGHNIDTCYHVSITEKTCRGFLIKMGGKIKTWKKRWFVFDRNKRTFSYYADKHETKLKGVIYFQAIEEVYYDHLKNANKSPNPLLTFSVKTHDRIYYMVAPSPEAMRIWMDVIVTGAEGYTHFLL",0.5277 log2,1.653 log2
